Experimental findings from US12269859B2, “Synthetic immune receptors and methods of use thereof” (Angeles Therapeutics, Inc., priority 2016, dated 2025) are described below.

The experiment deals with target antigen-expressing cell line. In words: Jurkat NFAT-GFP assay, coculture with target cell lines expressing the respective target antigen (summary Table 10A). It is filed as cell-based, human. On the set-up: key: The signs +/−, +, 2+ etc. after the name of the cell lines indicate the relative degree of positivity on the Jurkat-NFAT-GFP assay as measured by the % GFP positive cells; +: relative degree of positivity on the Jurkat-NFAT-GFP assay as measured by the % GFP positive cells; 2+: relative degree of positivity on the Jurkat-NFAT-GFP assay as measured by the % GFP positive cells. The note with it: for NFAT-GFP ASSAY Positive Cell lines: L428: SIR-expressing Jurkat-NFAT-GFP cells cocultured with L428. The gist of the method: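 Read-out: % GFP+ cells by FACS. SIR-transduced, puromycin-selected Jurkat NFAT-GFP (IL-2 promoter reporter) cocultured ~4–18 h with target line, E:T ~1:2; parental cells as control; graded +/−, +, 2+ relative to parental.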

B1: 072717-G01 (protein)
chain: MALPVTALLLPLALLLHAARPLEGKPIPNPLLGLDSTGSGEDLKNVFPPEVAVFEPSKAEIAHTQKATLVCLATGFYPDHVELSWWVNGKEVHSGVCTDPQPLKEQPALNDSRYCLSSRLRVSATFWQNPRNHFRCQVQFYGLSENDEWTQDRAKPVTQIVSAEAWGRADCGITSASYHQGVLSATILYEILLGKATLYAVLVSALVLMAMVKRKDSRGRAKRSGSGATNFSLLKQAGDVEENPGPTSMALPVTALLLPLALLLHAARPEFAVQLVESGGGLVQAGDSLRLTCTASGRAFSTYFMAWFRQAPGKEREFVAGIAWSGGSTAYADSVKGRFTISRDNAKNTVYLQMNSLKSEDTAVYYCASRGIEVEEFGAWGQGTQVTVSSPGGGGSPQVQLVESGGGLVQAGGSLRLSCAASGGTLSKNTVAWFRQAPGKERGFVASITWDGRTTYYADSVKGRFTISRDNAKNTVYLQMNSLKPEDTAVYVCADLGKWPAGPADYWGQGTQVTVSSEVAALEKEVAALEKEVAALEKEVAALEKTREQKLISEEDGSGIQNPDPAVYQLRDSKSSDKSVCLFTDFDSQTNVSQSKDSDVYITDKCVLDMRSMDFKSNSAVAWSNKSDFACANAFNNSIIPEDTFFPSSDVPCDVKLVEKSFETDTNLNFQNLSVIGFRILLLKVAGFNLLMTLRLWSSRAKRSGSGVKQTLNFDLLKLAGDVESNPGPSRGHMTEYKPTVRLATRDDVPRAVRTLAAAFADYPATRHTVDPDRHIERVTELQELFLTRVGLDIGKVWVADDGAAVAVWTTPESVEAGAVFAEIGPRMAELSGSRLAAQQQMEGLLAPHRPKEPAWFLATVGVSPDHQGKGLGSAVVLPGVEAAERAGVPAFLETSAPRNLPFYERLGFTVTADVEVPEGPRTWCMTRKPGA
Consider B1, for which, where the note is “SIR-expressing Jurkat-NFAT-GFP cells cocultured with L363, relative % GFP positive cells”, the “NFAT-GFP ASSAY Positive Cell lines: L363” value was “L363 (+/−), U266”. Under “SIR-expressing Jurkat-NFAT-GFP cells cocultured with U266, relative % GFP positive cells”, the “NFAT-GFP ASSAY Positive Cell lines: U266” value is reported as “(+/−)”.

B2: 090116-H02 (protein)
chain: MALPVTALLLPLALLLHAARPLEGKPIPNPLLGLDSTGSGEDLKNVFPPEVAVFEPSKAEIAHTQKATLVCLATGFYPDHVELSWWVNGKEVHSGVCTDPQPLKEQPALNDSRYCLSSRLRVSATFWQNPRNHFRCQVQFYGLSENDEWTQDRAKPVTQIVSAEAWGRADCGITSASYHQGVLSATILYEILLGKATLYAVLVSALVLMAMVKRKDSRGRAKRSGSGATNFSLLKQAGDVEENPGPTSMALPVTALLLPLALLLHAARPDIQMTQSTSSLSASLGDRVTISCSASQGINNYLNWYQQKPDGTVELLIYYTSTLQSGVPSRFSGSGSGTDYSLTISNLEPEDIGTYYCQQYSKLPRTFGGGTKLEIKGGGGSGGGGSGGGGSQVQLQQSGSELMMPGASVKISCKATGYTFSNYWIEWVKQRPGHGLEWIGEILPGTGRTIYNEKFKGKATFTADISSNTVQMQLSSLTSEDSAVYYCARRDYYGNFYYAMDYWGQGTSVTVSSTREQKLISEEDGSGIQNPDPAVYQLRDSKSSDKSVCLFTDFDSQTNVSQSKDSDVYITDKCVLDMRSMDFKSNSAVAWSNKSDFACANAFNNSIIPEDTFFPSSDVPCDVKLVEKSFETDTNLNFQNLSVIGFRILLLKVAGFNLLMTLRLWSSRAKRSGSGVKQTLNFDLLKLAGDVESNPGPSRGHMTEYKPTVRLATRDDVPRAVRTLAAAFADYPATRHTVDPDRHIERVTELQELFLTRVGLDIGKVWVADDGAAVAVWTTPESVEAGAVFAEIGPRMAELSGSRLAAQQQMEGLLAPHRPKEPAWFLATVGVSPDHQGKGLGSAVVLPGVEAAERAGVPAFLETSAPRNLPFYERLGFTVTADVEVPEGPRTWCMTRKPGA
modifications: Synthetic Immune Receptor (SIR)
Consider B2, for which the “NFAT-GFP ASSAY Positive Cell lines” value by setting is: (coculture with L363 cells) “L363 (+), U266 (+)”; (coculture with U266 cells) “L363 (+), U266 (+)”.

B3: 110116-H02 (protein)
chain: MALPVTALLLPLALLLHAARPLEQKLISEEDLGSGDRPDPAVYQLRDSKSSDKSVCLFTDFDSQTNVSQSKDSDVYITDKCVLDMRSMDFKSNSAVAWSNKSDFACANAFNNSIIPEDTFFPSPESSCDVKLVEKSFETDTNLNFQNLSVIGFRILLLKVAGFNLLMTLRLWSSSSRAKRSGSGVKQTLNFDLLKLAGDVESNPGPTSMALPVTALLLPLALLLHAARPDIQMTQSTSSLSASLGDRVTISCSASQGINNYLNWYQQKPDGTVELLIYYTSTLQSGVPSRFSGSGSGTDYSLTISNLEPEDIGTYYCQQYSKLPRTFGGGTKLEIKGGGGSGGGGSGGGGSQVQLQQSGSELMMPGASVKISCKATGYTFSNYWIEWVKQRPGHGLEWIGEILPGTGRTIYNEKFKGKATFTADISSNTVQMQLSSLTSEDSAVYYCARRDYYGNFYYAMDYWGQGTSVTVSSTRGKPIPNPLLGLDSTGSGEDLKNVFPPEVAVFEPSEAEISHTQKATLVCLATGFYPDHVELSWWVNGKEVHSGVCTDPQPLKEQPALNDSRYCLSSRLRVSATFWQNPRNHFRCQVQFYGLSENDEWTQDRAKPVTQIVSAEAWGRADCGFTSESYQQGVLSATILYEILLGKATLYAVLVSALVLMAMVKRKDSRGRAKRSGSGATNFSLLKQAGDVEENPGPSRGHMTEYKPTVRLATRDDVPRAVRTLAAAFADYPATRHTVDPDRHIERVTELQELFLTRVGLDIGKVWVADDGAAVAVWTTPESVEAGAVFAEIGPRMAELSGSRLAAQQQMEGLLAPHRPKEPAWFLATVGVSPDHQGKGLGSAVVLPGVEAAERAGVPAFLETSAPRNLPFYERLGFTVTADVEVPEGPRTWCMTRKPGA
modifications: Synthetic Immune Receptor (SIR)
Consider B3, for which the “NFAT-GFP ASSAY Positive Cell lines” value (coculture with L363 cells) is “L363 (+/−), U266” and the “NFAT-GFP ASSAY Positive Cell lines” value (coculture with U266 cells) is recorded as “(+)”.

B4: 012517-J12 (protein)
chain: MALPVTALLLPLALLLHAARPLEGKPIPNPLLGLDSTGSGEDLKNVFPPEVAVFEPSKAEIAHTQKATLVCLATGFYPDHVELSWWVNGKEVHSGVCTDPQPLKEQPALNDSRYCLSSRLRVSATFWQNPRNHFRCQVQFYGLSENDEWTQDRAKPVTQIVSAEAWGRADCGITSASYHQGVLSATILYEILLGKATLYAVLVSALVLMAMVKRKDSRGRAKRSGSGATNFSLLKQAGDVEENPGPTSMALPVTALLLPLALLLHAARPDIQMTQSPASLSASLGETVTIECRTSKDIYSNLAWFQQEPGNSPQLLIYDASNLADGVPSRFSGSGSGTQYSLQINNLQSEDVASYFCHQYNNYPYTFGTGTKLELKGGGGSGGGGSGGGGSQVQLQESGPTLVNPGDSVKMSCKASGYTFTDHIIHWVKQSHGKSLEWIGYINPYSGGANYNGKFKSKATLTIDKSSSTAYMEFSRLTSGDSAIYYCALNYGSYYAMDAWGQGTSVTVSSTREQKLISEEDGSGIQNPDPAVYQLRDSKSSDKSVCLFTDFDSQTNVSQSKDSDVYITDKCVLDMRSMDFKSNSAVAWSNKSDFACANAFNNSIIPEDTFFPSSDVPCDVKLVEKSFETDTNLNFQNLSVIGFRILLLKVAGFNLLMTLRLWSSRAKRSGSGVKQTLNFDLLKLAGDVESNPGPSRGHMTEYKPTVRLATRDDVPRAVRTLAAAFADYPATRHTVDPDRHIERVTELQELFLTRVGLDIGKVWVADDGAAVAVWTTPESVEAGAVFAEIGPRMAELSGSRLAAQQQMEGLLAPHRPKEPAWFLATVGVSPDHQGKGLGSAVVLPGVEAAERAGVPAFLETSAPRNLPFYERLGFTVTADVEVPEGPRTWCMTRKPGA
B4: for the setting “relative % GFP positive cells”, the “NFAT-GFP ASSAY Positive Cell lines: L428” value is “L428 (2+)”.

B5: 083116-F05 (protein)
chain: MALPVTALLLPLALLLHAARPLEGKPIPNPLLGLDSTGSGEDLKNVFPPEVAVFEPSKAEIAHTQKATLVCLATGFYPDHVELSWWVNGKEVHSGVCTDPQPLKEQPALNDSRYCLSSRLRVSATFWQNPRNHFRCQVQFYGLSENDEWTQDRAKPVTQIVSAEAWGRADCGITSASYHQGVLSATILYEILLGKATLYAVLVSALVLMAMVKRKDSRGRAKRSGSGATNFSLLKQAGDVEENPGPTSMALPVTALLLPLALLLHAARPDIQMTQSTSSLSASLGDRVTISCSASQGINNYLNWYQQKPDGTVELLIYYTSTLQSGVPSRFSGSGSGTDYSLTISNLEPEDIGTYYCQQYSKLPRTFGGGTKLEIKGGGGSGGGGSGGGGSQVQLQQSGSELMMPGASVKISCKATGYTFSNYWIEWVKQRPGHGLEWIGEILPGTGRTIYNEKFKGKATFTADISSNTVQMQLSSLTSEDSAVYYCARRDYYGNFYYAMDYWGQGTSVTVSSTREQKLISEEDLGSGTPFPSLAPPIMLLVDGKQQMVVVCLVLDVAPPGLDSPIWFSAGNGSALDAFTYGPSPATDGTWTNLAHLSLPSEELASWEPLVCHTGPGAEGHSRSTQPMHLSGEASTARTCPQEPLRGTPGGALWLGVLRLLLFKLLLFDLLLTCSCLCDPAGPLPSPATTTRLRALGSHRLHPATETGGREATSSPRPQPRDRRWGDTPPGRKPGSPVRAKRSGSGVKQTLNFDLLKLAGDVESNPGPSRSRGHMTEYKPTVRLATRDDVPRAVRTLAAAFADYPATRHTVDPDRHIERVTELQELFLTRVGLDIGKVWVADDGAAVAVWTTPESVEAGAVFAEIGPRMAELSGSRLAAQQQMEGLLAPHRPKEPAWFLATVGVSPDHQGKGLGSAVVLPGVEAAERAGVPAFLETSAPRNLPFYERLGFTVTADVEVPEGPRTWCMTRKPGA
modifications: Polynucleotide encoding a Synthetic Immune Receptor (SIR)
As to B5, the “NFAT-GFP ASSAY Positive Cell lines” value (coculture with U266 cells) is “U266 (+/−)”.

B6: 012517-M12 (protein)
chain: MALPVTALLLPLALLLHAARPLEGKPIPNPLLGLDSTGSGEDLKNVFPPEVAVFEPSKAEIAHTQKATLVCLATGFYPDHVELSWWVNGKEVHSGVCTDPQPLKEQPALNDSRYCLSSRLRVSATFWQNPRNHFRCQVQFYGLSENDEWTQDRAKPVTQIVSAEAWGRADCGITSASYHQGVLSATILYEILLGKATLYAVLVSALVLMAMVKRKDSRGRAKRSGSGATNFSLLKQAGDVEENPGPTSMALPVTALLLPLALLLHAARPDVLMTQTPVSLPVSLGGQVSISCRSSQSLVHSDGDTYLHWYLQKPGQSPQLLIYRVSNRFSGVPDRFSGSGSGTDFTLKISRVEPEDLGLYYCLQTTHFPPWTFGGGTKLEMKGGGGSGGGGSGGGGSQVQLQQSGPELRRPGSSVRLSCKASGYRIKDFLIHWIKNRPEHGLEWIGWIDPEDGETKYAQKFQTKATLTADTSSNTAYMQLSSLTSEDTATYFCARWGDVYYGLMRGHVMDAWGQGTSVTVSSTREQKLISEEDGSGIQNPDPAVYQLRDSKSSDKSVCLFTDFDSQTNVSQSKDSDVYITDKCVLDMRSMDFKSNSAVAWSNKSDFACANAFNNSIIPEDTFFPSSDVPCDVKLVEKSFETDTNLNFQNLSVIGFRILLLKVAGFNLLMTLRLWSSRAKRSGSGVKQTLNFDLLKLAGDVESNPGPSRGHMTEYKPTVRLATRDDVPRAVRTLAAAFADYPATRHTVDPDRHIERVTELQELFLTRVGLDIGKVWVADDGAAVAVWTTPESVEAGAVFAEIGPRMAELSGSRLAAQQQMEGLLAPHRPKEPAWFLATVGVSPDHQGKGLGSAVVLPGVEAAERAGVPAFLETSAPRNLPFYERLGFTVTADVEVPEGPRTWCMTRKPGA
Regarding B6, for the setting “relative % GFP positive cells”, the “NFAT-GFP ASSAY Positive Cell lines: L428” value is given as “L428 (+)”.
